The test system of the data set is O=C(O)C(=O)CC1(C(=O)O)C=CC(O)C=C1. Put plainly: purified protein. It counts as biochemical, Planktothrix agardhii. To be noted: non-aromatizing decarboxylation to endocyclic diene H2HPP.

On to “AerD (Planktothrix agardhii NIVA-CYA 126/8)”, for which the Km came out at 170 ± 3 µM and the kcat was determined as 245 ± 1 min⁻¹.

In general, Km refers to the substrate concentration at which the rate is half of its maximum. By kcat is commonly meant the maximal rate divided by the concentration of active sites.

For the origin of these results see publication PMC2957524.
